Results as given in the supplement of paper PMC9732359.
± gives the uncertainty stated by the source.

Assay: protein stability index of a GFP-peptide fusion (yeast GPS) (PSI 1-4); higher = more stable; sorted into four equal gates, so the index is relative within each strain
Settings: doa10∆
Outline: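 Tiled 17-residue yeast protein peptides were fused downstream of GFP in a plasmid that also expresses Cherry, and the pooled library was carried in yeast. Mid-log cultures in leucine-free medium were sorted into four equal gates by GFP/Cherry fluorescence ratio, and plasmids from each gate were PCR-amplified and Illumina-sequenced, with reads assigned to strains by barcodes. The protein stability index for each peptide was each gate's read frequency times its gate number, summed.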
In the case of AAAFSQQQNASSKLYQM [GAL11], the protein stability index is reported as 2.71 ± 0.097.
With AAAGGDAAAEEEKEEEA [RPP1B] the protein stability index was 3.32 ± 0.21.
Sequence AAEFRYKYGYDMPCDVL [SCL1] has a protein stability index of 2.64 ± 0.078.
Sequence AAEPMDSKMIQDLSRNT [SNU114] has a protein stability index of 2.93 ± 0.18.
Sequence AAGVERLIFYPDEYEQL [PRE3] has a protein stability index of 2.96 ± 0.14.
AAIHAKRVTIQKKDIKL [HHT1] gave a protein stability index of 2.92 ± 0.086.
For AAIKDLDDFGEEELFEV [RRP43], the protein stability index was 2.46 ± 0.11.
AALDITNVQRIAAYIRR [SMC1] showed a protein stability index of 3.08 ± 0.16.
AALDLSHTQNIGHLIKT [SMC2] gave a protein stability index of 2.88 ± 0.083.
AALFRLHKFLTKWGLIN [SWI3] gave a protein stability index of 2.83 ± 0.22.
Work on AALKKTRKAARPQKLRA [RPL6A] yielded a protein stability index of 2.96 ± 0.071.
Work on AAQIFGSYNAFEPASRL [COR1] yielded a protein stability index of 2.33 ± 0.07.
In the case of AAQTLLQMDYKDDMKVD [PRE9], the protein stability index is reported as 3.3 ± 0.1.
In the case of AARKAANKEKRAIILER [RPL7A], the protein stability index is reported as 1.19 ± 0.051.
Work on AASALDEKEKQLAVANE [SIR4] yielded a protein stability index of 2.92 ± 0.081.
Work on AASKVKLEEESKRGNDK [RPC53] yielded a protein stability index of 3.27 ± 0.089.
AATVRSTIRRLREMVEA [RPL43A] gave a protein stability index of 3.02 ± 0.084.
Sequence AAVIALGFVLLRDYTTV [RPN2] has a protein stability index of 1.59 ± 0.066.
ADAGIELVDMAGAGEAN [MTR3] gave a protein stability index of 2.76 ± 0.11.
Sequence ADAVTKDLKLRREDEII [REC8] has a protein stability index of 3.08 ± 0.11.
ADEPVKASLLLHVLVAH [FAS2] showed a protein stability index of 1.85 ± 0.043.
For ADINSNRLSNPQKNLLL [YOR098C/NUP1], the protein stability index was 3.11 ± 0.069.
With ADVHFLDCDGGFIDASC [RRP45] the protein stability index was 3.12 ± 0.09.
Sequence ADVLSILAMTYSENGKH [RPN1] has a protein stability index of 1.64 ± 0.066.
Work on ADVLVDRVVSSDSLDIA [SRP72] yielded a protein stability index of 1.95 ± 0.056.
For AEDGSRSTKDMIDAVFE [SNF6], the protein stability index was 3.18 ± 0.06.
AEEDSLLSGEDLTLDDI [YJL039C/NUP192] showed a protein stability index of 3.62 ± 0.13.
For AEEKREAVIDEKLEVIA [ITC1], the protein stability index was 3.04 ± 0.15.
For AEFILKNRSTIFWGIRL [BRR2], the protein stability index was 2.73 ± 0.056.
In the case of AEKFVPIDIFQIIRRVK [SIR3], the protein stability index is reported as 1.57 ± 0.28.
Sequence AENQTGESTVESEKLVT [RPC82] has a protein stability index of 3.17 ± 0.089.
Work on AERDSQGGFYKQQDAEE [UBP6] yielded a protein stability index of 3.35 ± 0.08.
In the case of AESMCQELELPGEFVTA [SNF5], the protein stability index is reported as 2.4 ± 0.061.
In the case of AETLAEELINAAKGSST [RPS5], the protein stability index is reported as 2.15 ± 0.083.
AFDIELSEFGIKKMLHL [YCS4] gave a protein stability index of 3.11 ± 0.067.
For AFLALVDAGIALNSMCA [RRP46], the protein stability index was 2.27 ± 0.096.
In the case of AFSFGAKSNEDKQDGTA [YJL041W/NSP1], the protein stability index is reported as 3.24 ± 0.13.
AFSYEQAQLRIDDKTQN [DIS3] gave a protein stability index of 3.32 ± 0.21.
AGGGSNKSSVRPTGGAN [MED6] gave a protein stability index of 2.93 ± 0.09.
AGLGKTNELWARLAILK [YGR119C/NUP57] showed a protein stability index of 2.38 ± 0.086.
Sequence AGLTRSDRSLSEDLFAD [BRR2] has a protein stability index of 3.04 ± 0.26.
In the case of AGQNATVAVMSYSGYDI [RET1], the protein stability index is reported as 1.32 ± 0.039.

Same assay, conditions: pdr5∆
AAAFSQQQNASSKLYQM [GAL11] gave a protein stability index of 2.86 ± 0.071.
Sequence AAAGGDAAAEEEKEEEA [RPP1B] has a protein stability index of 3.46 ± 0.16.
AAEFRYKYGYDMPCDVL [SCL1] gave a protein stability index of 2.79 ± 0.057.
AAGVERLIFYPDEYEQL [PRE3] showed a protein stability index of 2.86 ± 0.13.
Sequence AAIHAKRVTIQKKDIKL [HHT1] has a protein stability index of 3.04 ± 0.12.
AAIKDLDDFGEEELFEV [RRP43] gave a protein stability index of 2.49 ± 0.14.
Work on AALDITNVQRIAAYIRR [SMC1] yielded a protein stability index of 3.07 ± 0.17.
Work on AALDLSHTQNIGHLIKT [SMC2] yielded a protein stability index of 2.47 ± 0.063.
AALKKTRKAARPQKLRA [RPL6A] gave a protein stability index of 3.09 ± 0.05.
AAQIFGSYNAFEPASRL [COR1] gave a protein stability index of 1.55 ± 0.064.
AAQTLLQMDYKDDMKVD [PRE9] gave a protein stability index of 3.3 ± 0.068.
With AARKAANKEKRAIILER [RPL7A] the protein stability index was 1.37 ± 0.058.
AASALDEKEKQLAVANE [SIR4] gave a protein stability index of 3.28 ± 0.072.
With AASKVKLEEESKRGNDK [RPC53] the protein stability index was 3.41 ± 0.098.
Work on AATVRSTIRRLREMVEA [RPL43A] yielded a protein stability index of 2.8 ± 0.056.
Sequence AAVIALGFVLLRDYTTV [RPN2] has a protein stability index of 1.21 ± 0.081.
With ADAGIELVDMAGAGEAN [MTR3] the protein stability index was 2.69 ± 0.084.
With ADAVTKDLKLRREDEII [REC8] the protein stability index was 3.31 ± 0.1.
Sequence ADEPVKASLLLHVLVAH [FAS2] has a protein stability index of 1.59 ± 0.035.
For ADINSNRLSNPQKNLLL [YOR098C/NUP1], the protein stability index was 3 ± 0.07.
Work on ADVHFLDCDGGFIDASC [RRP45] yielded a protein stability index of 2.9 ± 0.098.
With ADVLSILAMTYSENGKH [RPN1] the protein stability index was 1.9 ± 0.1.
In the case of ADVLVDRVVSSDSLDIA [SRP72], the protein stability index is reported as 1.58 ± 0.072.
AEDGSRSTKDMIDAVFE [SNF6] showed a protein stability index of 3.38 ± 0.048.
For AEEDSLLSGEDLTLDDI [YJL039C/NUP192], the protein stability index was 3.4 ± 0.11.
AEEKREAVIDEKLEVIA [ITC1] showed a protein stability index of 2.62 ± 0.16.
With AEFILKNRSTIFWGIRL [BRR2] the protein stability index was 1.93 ± 0.063.
AEKFVPIDIFQIIRRVK [SIR3] showed a protein stability index of 1.46 ± 0.15.
Sequence AELLNEWHSSLTLKEAE [PUP2] has a protein stability index of 2.93 ± 0.14.
Work on AENQTGESTVESEKLVT [RPC82] yielded a protein stability index of 3.29 ± 0.11.
AERDSQGGFYKQQDAEE [UBP6] gave a protein stability index of 3.38 ± 0.089.
AESMCQELELPGEFVTA [SNF5] showed a protein stability index of 2.53 ± 0.057.
For AETLAEELINAAKGSST [RPS5], the protein stability index was 2.51 ± 0.095.
AFDIELSEFGIKKMLHL [YCS4] gave a protein stability index of 3.09 ± 0.088.
For AFLALVDAGIALNSMCA [RRP46], the protein stability index was 2.69 ± 0.11.
Sequence AFSFGAKSNEDKQDGTA [YJL041W/NSP1] has a protein stability index of 2.98 ± 0.16.
Work on AFSYEQAQLRIDDKTQN [DIS3] yielded a protein stability index of 2.81 ± 0.14.
With AGGGSNKSSVRPTGGAN [MED6] the protein stability index was 3.12 ± 0.1.
AGLGKTNELWARLAILK [YGR119C/NUP57] gave a protein stability index of 1.67 ± 0.091.
